According to US20190375821A1 (IBENTRUS, published 2019):

Columns and labels:
NRP2 = target: T1, NRP2 (UniProt O60462 23-864, limits assumed); assay: ELISA, VEGF165
T1 construct: Control 'natural receptor'

NRP1 = target: T2, NRP1 (UniProt O14786-2 22-644, limits assumed); assay: ELISA, VEGF165
T2 construct: Control 'natural receptor'; also called neuropilin-1; neuropilin 1

T1 sequence (O60462 23-864 limits assumed): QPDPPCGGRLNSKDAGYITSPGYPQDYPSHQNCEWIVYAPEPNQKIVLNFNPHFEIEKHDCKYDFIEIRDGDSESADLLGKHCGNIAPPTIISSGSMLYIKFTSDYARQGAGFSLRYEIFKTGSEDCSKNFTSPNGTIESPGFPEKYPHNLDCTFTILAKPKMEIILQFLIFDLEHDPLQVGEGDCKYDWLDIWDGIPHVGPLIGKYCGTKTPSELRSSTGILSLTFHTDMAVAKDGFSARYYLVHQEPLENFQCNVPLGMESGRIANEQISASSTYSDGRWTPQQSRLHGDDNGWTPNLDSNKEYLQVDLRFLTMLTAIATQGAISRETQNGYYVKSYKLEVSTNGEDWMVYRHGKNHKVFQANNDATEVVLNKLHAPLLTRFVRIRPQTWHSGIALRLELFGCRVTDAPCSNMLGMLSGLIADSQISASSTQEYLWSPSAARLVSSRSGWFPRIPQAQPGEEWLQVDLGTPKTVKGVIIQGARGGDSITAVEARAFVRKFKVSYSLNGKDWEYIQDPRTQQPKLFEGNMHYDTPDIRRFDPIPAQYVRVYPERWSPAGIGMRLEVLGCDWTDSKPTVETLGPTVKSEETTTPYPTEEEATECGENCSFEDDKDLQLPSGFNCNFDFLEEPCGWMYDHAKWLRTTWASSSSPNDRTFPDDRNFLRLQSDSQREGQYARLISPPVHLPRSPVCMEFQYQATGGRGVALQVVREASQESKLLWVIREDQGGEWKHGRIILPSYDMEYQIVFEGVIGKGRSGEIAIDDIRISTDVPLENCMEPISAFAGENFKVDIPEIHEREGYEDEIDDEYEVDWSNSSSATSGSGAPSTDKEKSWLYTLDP

- Kd (NRP2): 8 nM
- Kd (NRP1): 0.312 nM
B1: VEGF165 (ligand, UniProt P15692-4 27-191, looked up)
chain: APMAEGGGQNHHEVVKFMDVYQRSYCHPIETLVDIFQEYPDEIEYIFKPSCVPLMRCGGCCNDEGLECVPTEESNITMQIMRIKPHQGQHIGEMSFLQHNKCECRPKKDRARQENPCGPCSERRKHLFVQDPQTCKCSCKNTDSRCKARQLELNERTCRCDKPRR
notes: also called VEGFA
